Biological target: T1, recombinant human B7H3-Fc protein (human, UniProt Q5ZPR3 29-466, limits assumed)
T1 construct: 154 kDa non-reduced, 77 kDa reduced; also called hB7H3-Fc; not shown: Fc part
T1 sequence (looked up): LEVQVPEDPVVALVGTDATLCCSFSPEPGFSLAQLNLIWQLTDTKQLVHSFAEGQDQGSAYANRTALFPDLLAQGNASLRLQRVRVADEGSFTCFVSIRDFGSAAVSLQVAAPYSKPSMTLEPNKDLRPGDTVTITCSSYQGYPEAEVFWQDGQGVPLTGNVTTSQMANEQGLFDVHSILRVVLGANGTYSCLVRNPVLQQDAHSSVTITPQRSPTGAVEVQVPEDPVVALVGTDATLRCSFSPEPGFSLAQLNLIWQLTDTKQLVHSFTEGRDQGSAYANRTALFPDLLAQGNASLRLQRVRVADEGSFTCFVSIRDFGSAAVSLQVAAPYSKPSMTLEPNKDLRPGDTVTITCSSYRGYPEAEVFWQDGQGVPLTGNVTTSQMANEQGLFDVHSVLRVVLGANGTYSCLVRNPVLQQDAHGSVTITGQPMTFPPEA
Assay: BLI (Octet), human B7H3-Fc; same value printed for 660, 528, 264, 198, 66 and 33 nM
Protocol: FIG. 13: Kinetics of RWG4 on human B7H3-Fc. The association/dissociation properties of RWG4 were measured on the Octet system (Creative Biolabs) using recombinant human B7H3-Fc protein.
The association/dissociation properties of RWC4 and RWG4 were measured on the Octet system (Creative Biolabs) using either recombinant human B7H3-Fc protein or recombinant mouse B7H3-His protein.

Kd: 6.94 nM
koff: 6.34e-05 s⁻¹
kon: 9130 M⁻¹ s⁻¹
B1: RWG4 (VHH)
VHH: QVQLVQSGGGLVQPGGSLRLSCAASGFTFSVYWFYWVRQAPRQGLEWVSTIASNGSTYYSDSVKGRFTISRDNAKNTVYLQMNSLKPEDTAVYYCVSDPDYYSDYERAYKFWAQGTQVTVSS
notes: Camel VHH; tag not described; also called camel antibody RWG4
